Assay results as given in publication PMC4428439.

B1: RssB, full-length, untagged, overexpressed in lysate [E. coli] / His6-IraP [E. coli] (parent)
chain 1: MTQPLVGKQILIVEDEQVFRSLLDSWFSSLGATTVLAADGVDALELLGGFTPDLMICDIAMPRMNGLKLLEHIRNRGDQTPVLVISATENMADIAKALRLGVEDVLLKPVKDLNRLREMVFACLYPSMFNSRVEEEERLFRDWDAMVDNPAAAAKLLQELQPPVQQVISHCRVNYRQLVAADKPGLVLDIAALSENDLAFYCLDVTRAGHNGVLAALLLRALFNGLLQEQLAHQNQRLPELGALLKQVNHLLRQANLPGQFPLLVGYYHRELKNLILVSAGLNATLNTGEHQVQISNGVPLGTLGNAYLNQLSQRCDAWQCQIWGTGGRLRLMLSAE
chain 2: MKNLIAELLFKLAQKEEESKELCAQVEALEIIVTAMLRNMAQNDQQRLIDQVEGALYEVKPDASIPDDDTELLRDYVKKLLKHPRQ

Variants of: B1
Experiment: pull-down
Settings: with His6-IraP [E. coli]; lysate of cells co-expressing RssB and His6-IraP applied to Ni-NTA beads; eluted with imidazole; n = 3; parent: 1; read off a plot

How did the ratio to parent turn out when chain 1 MTQPLVGKQILIVEDEQVFRSLLDSWFSSLGATTVLAADGVDALELLGGFTPDLMICAIAMPRMNGLKLLEHIRNRGDQTPVLVISATENMADIAKALRLGVEDVLLKPVKDLNRLREMVFACLYPSMFNSRVEEEERLFRDWDAMVDNPAAAAKLLQELQPPVQQVISHCRVNYRQLVAADKPGLVLDIAALSENDLAFYCLDVTRAGHNGVLAALLLRALFNGLLQEQLAHQNQRLPELGALLKQVNHLLRQANLPGQFPLLVGYYHRELKNLILVSAGLNATLNTGEHQVQISNGVPLGTLGNAYLNQLSQRCDAWQCQIWGTGGRLRLMLSAE [chain 1 D58A] was run?
The ratio to parent was 0.6.

How did the ratio to parent turn out when chain 1 MTQPLVGKQILIVEDEQVFRSLLDSWFSSLGATTVLAADGVDALELLGGFTPDLMICPIAMPRMNGLKLLEHIRNRGDQTPVLVISATENMADIAKALRLGVEDVLLKPVKDLNRLREMVFACLYPSMFNSRVEEEERLFRDWDAMVDNPAAAAKLLQELQPPVQQVISHCRVNYRQLVAADKPGLVLDIAALSENDLAFYCLDVTRAGHNGVLAALLLRALFNGLLQEQLAHQNQRLPELGALLKQVNHLLRQANLPGQFPLLVGYYHRELKNLILVSAGLNATLNTGEHQVQISNGVPLGTLGNAYLNQLSQRCDAWQCQIWGTGGRLRLMLSAE [chain 1 D58P] was run?
Its ratio to parent is 0.36.
